# Values quoted from earlier work, collected in paper PMC12990809.
# Experiments:
# Test in all cases: pulldown
# Conditions in all cases: 20 nM protein, 1.5 uM RNA pool; 20 mM HEPES pH 7.8, 70 mM KCl, 10 mM NaCl, 10% glycerol, 2 mM DTT, 0.1 ug/uL BSA; 30 min, 4 C (protocol of this paper; not …); cited from earlier work
# [1] = target: T1, LmjF.35.4130 (Leishmania major) (UniProt E9AFP0)
# T1 sequence: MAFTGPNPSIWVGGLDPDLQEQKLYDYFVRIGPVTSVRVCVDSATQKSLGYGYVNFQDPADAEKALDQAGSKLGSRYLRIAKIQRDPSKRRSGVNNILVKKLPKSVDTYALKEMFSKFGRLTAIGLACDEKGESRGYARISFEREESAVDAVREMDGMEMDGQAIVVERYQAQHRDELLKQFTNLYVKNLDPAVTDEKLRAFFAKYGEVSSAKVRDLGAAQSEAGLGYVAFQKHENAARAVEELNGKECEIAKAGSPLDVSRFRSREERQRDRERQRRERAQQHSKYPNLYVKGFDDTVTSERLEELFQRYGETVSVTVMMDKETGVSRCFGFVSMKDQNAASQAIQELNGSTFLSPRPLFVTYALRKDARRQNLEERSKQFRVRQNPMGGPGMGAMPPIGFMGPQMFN
# [2] = target: T2, syncrip (Xenopus tropicalis) (UniProt A0A8J0QJ86)
# T2 sequence: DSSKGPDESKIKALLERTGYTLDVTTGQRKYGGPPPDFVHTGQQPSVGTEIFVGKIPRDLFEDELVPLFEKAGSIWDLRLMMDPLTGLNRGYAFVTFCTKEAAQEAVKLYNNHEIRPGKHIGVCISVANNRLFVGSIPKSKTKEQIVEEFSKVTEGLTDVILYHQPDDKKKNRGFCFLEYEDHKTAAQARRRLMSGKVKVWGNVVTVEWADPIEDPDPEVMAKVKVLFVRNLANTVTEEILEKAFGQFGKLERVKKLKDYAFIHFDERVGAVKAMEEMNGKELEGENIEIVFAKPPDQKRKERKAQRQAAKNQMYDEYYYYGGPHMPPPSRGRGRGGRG
# [3] = target: T3, estExt_fgeneshHS_pg.C_730016 (Naegleria gruberi) (UniProt D2W041)
# T3 sequence: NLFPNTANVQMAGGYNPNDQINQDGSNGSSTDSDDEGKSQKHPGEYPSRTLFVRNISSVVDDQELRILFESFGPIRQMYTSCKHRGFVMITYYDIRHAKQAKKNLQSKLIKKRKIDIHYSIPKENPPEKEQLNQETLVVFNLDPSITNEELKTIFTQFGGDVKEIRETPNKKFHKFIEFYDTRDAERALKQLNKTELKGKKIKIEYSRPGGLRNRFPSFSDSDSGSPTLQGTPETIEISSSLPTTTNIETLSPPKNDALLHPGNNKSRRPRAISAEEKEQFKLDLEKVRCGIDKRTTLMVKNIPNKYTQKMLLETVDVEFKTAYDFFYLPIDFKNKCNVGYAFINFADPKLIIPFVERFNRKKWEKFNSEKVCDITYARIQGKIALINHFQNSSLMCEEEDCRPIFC
# [4] = target: T4, TVAG_267990 (Trichomonas vaginalis) (UniProt A2DLE8)
# T4 sequence: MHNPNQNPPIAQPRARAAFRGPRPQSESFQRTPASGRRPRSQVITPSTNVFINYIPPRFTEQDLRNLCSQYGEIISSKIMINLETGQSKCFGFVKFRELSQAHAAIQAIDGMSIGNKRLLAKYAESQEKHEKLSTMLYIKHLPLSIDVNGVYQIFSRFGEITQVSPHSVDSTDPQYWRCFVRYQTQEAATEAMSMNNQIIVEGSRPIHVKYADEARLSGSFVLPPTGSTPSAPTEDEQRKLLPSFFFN
# [5] = target: T5, TVAG_002940 (Trichomonas vaginalis) (UniProt A2EZR7)
# T5 sequence: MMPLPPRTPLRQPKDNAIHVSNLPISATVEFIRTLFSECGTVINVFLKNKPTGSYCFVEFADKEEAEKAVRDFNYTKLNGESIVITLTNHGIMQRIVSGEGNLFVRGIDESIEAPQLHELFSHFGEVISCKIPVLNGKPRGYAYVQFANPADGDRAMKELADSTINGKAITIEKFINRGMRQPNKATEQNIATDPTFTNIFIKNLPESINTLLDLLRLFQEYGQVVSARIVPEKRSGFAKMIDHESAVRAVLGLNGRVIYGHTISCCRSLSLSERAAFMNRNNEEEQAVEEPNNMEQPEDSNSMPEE
# [6] = target: T6, Tb09.211.0930 (Trypanosoma brucei) (UniProt Q38E63)
# T6 sequence: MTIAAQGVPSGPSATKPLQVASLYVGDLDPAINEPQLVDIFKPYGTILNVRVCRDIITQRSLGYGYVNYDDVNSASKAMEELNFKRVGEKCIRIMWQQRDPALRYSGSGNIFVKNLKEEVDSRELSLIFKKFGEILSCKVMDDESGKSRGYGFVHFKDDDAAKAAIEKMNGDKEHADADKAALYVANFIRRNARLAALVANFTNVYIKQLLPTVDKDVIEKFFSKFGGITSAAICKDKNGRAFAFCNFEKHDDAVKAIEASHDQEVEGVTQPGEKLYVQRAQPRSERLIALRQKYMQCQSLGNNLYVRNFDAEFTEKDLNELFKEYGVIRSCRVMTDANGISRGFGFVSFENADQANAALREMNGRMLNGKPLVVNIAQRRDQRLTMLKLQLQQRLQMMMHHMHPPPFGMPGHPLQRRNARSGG
# [7] = target: e_gw1.09.00.326.1 (Ostreococcus tauri) (UniProt A0A090N3Z5)
# Chain of e_gw1.09.00.326.1 (Ostreococcus tauri) (A0A090N3Z5 entry or part of it): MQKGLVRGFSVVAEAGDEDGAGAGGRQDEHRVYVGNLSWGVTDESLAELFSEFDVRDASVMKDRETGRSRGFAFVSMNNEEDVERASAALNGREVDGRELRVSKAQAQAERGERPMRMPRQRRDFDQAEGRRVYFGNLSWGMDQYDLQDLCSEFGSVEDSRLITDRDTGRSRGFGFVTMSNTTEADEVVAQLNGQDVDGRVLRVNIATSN
# [8] = target: T7, NEMVEDRAFT_v1g104011 (Nematostella vectensis) (UniProt A7S488)
# T7 sequence: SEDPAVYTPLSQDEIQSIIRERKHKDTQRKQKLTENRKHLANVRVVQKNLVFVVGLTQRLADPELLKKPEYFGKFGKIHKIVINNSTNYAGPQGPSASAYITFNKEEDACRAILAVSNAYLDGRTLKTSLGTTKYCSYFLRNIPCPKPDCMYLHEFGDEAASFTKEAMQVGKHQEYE
# [9] = target: T8, ANKHD1 (Homo sapiens) (UniProt Q8IWZ3)
# T8 sequence: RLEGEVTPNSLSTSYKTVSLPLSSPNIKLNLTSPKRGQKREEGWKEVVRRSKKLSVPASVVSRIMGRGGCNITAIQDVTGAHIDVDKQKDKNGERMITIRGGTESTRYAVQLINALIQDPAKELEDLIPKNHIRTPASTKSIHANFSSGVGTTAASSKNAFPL
# [10] = target: SRSF10 (Homo sapiens) (UniProt O75494)
# Chain of SRSF10 (Homo sapiens) (O75494 1-92): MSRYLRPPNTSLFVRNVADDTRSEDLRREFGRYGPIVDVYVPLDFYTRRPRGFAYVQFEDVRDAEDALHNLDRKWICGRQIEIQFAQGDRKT
# [11] = target: eIF-2alpha (Drosophila melanogaster) (UniProt P41374)
# Chain of eIF-2alpha (Drosophila melanogaster) (P41374 whole entry): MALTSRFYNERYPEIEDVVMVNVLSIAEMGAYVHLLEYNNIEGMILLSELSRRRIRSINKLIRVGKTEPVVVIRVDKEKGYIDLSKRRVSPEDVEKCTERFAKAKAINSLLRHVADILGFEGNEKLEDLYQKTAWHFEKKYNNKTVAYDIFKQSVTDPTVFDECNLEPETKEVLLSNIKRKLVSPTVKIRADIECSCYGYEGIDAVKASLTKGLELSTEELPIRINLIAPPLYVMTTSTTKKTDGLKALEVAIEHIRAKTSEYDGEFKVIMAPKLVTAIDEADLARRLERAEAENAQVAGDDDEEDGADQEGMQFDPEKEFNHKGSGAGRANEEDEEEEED
# [12] = target: T9, LmjF.35.2550 (Leishmania major) (UniProt E9AF78)
# T9 sequence: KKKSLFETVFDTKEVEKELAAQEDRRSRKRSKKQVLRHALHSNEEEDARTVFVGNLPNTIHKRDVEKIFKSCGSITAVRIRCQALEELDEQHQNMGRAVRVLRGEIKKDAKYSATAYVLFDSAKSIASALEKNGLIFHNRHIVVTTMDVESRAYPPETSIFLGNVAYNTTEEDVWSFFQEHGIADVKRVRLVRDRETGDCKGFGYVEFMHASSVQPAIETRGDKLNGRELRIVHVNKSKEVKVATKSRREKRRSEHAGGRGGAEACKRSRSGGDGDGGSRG
# [13] = target: T10, RBM47 (Gallus gallus) (UniProt A0A8V0YMK0)
# T10 sequence: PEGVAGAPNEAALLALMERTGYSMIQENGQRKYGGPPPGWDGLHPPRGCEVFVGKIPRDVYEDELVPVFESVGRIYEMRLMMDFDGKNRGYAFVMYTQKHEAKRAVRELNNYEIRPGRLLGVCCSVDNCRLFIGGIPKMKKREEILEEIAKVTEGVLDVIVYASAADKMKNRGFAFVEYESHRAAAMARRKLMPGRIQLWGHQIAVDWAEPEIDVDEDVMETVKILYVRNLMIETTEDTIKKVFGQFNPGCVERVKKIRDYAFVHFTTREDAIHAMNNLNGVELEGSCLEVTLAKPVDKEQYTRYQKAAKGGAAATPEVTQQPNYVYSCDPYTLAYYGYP
# [14] = target: T11, rbm47 (Xenopus tropicalis) (UniProt A0A8J0QCA8)
# T11 sequence: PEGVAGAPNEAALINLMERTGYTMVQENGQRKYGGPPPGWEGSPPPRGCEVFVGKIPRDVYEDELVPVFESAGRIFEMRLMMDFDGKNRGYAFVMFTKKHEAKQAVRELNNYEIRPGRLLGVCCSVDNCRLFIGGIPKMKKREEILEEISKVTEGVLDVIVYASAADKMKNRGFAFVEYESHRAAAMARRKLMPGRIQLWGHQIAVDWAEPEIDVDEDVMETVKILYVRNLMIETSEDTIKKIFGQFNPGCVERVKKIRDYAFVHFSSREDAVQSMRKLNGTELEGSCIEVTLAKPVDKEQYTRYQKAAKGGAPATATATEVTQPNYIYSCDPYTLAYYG
# [15] = target: T12, Rb97D (Drosophila melanogaster) (UniProt Q02926)
# T12 sequence: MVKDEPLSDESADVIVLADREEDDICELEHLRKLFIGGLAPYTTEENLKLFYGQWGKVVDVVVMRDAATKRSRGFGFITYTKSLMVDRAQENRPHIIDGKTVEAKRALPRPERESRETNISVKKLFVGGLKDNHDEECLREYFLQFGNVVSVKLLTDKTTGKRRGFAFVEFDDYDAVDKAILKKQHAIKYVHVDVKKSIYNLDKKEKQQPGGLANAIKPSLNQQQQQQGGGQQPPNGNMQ
# [16] = target: T13, TVAG_129710 (Trichomonas vaginalis) (UniProt A2DI67)
# T13 sequence: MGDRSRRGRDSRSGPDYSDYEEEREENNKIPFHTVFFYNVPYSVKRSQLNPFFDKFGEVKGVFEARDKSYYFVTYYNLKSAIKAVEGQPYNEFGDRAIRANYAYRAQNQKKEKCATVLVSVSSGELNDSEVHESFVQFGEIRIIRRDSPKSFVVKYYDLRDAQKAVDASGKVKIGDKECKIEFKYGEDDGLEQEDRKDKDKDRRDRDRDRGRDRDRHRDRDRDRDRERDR
# [17] = target: aret (Drosophila melanogaster) (UniProt C8VV87)
# Chain of aret (Drosophila melanogaster) (C8VV87 entry or part of it): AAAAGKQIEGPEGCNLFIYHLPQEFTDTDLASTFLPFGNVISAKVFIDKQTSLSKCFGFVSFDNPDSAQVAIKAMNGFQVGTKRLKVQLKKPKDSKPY
# [18] = target: PTBP1 (Homo sapiens) (UniProt P26599)
# Chain of PTBP1 (Homo sapiens) (P26599 other isoform, or with tags, fused parts or gaps): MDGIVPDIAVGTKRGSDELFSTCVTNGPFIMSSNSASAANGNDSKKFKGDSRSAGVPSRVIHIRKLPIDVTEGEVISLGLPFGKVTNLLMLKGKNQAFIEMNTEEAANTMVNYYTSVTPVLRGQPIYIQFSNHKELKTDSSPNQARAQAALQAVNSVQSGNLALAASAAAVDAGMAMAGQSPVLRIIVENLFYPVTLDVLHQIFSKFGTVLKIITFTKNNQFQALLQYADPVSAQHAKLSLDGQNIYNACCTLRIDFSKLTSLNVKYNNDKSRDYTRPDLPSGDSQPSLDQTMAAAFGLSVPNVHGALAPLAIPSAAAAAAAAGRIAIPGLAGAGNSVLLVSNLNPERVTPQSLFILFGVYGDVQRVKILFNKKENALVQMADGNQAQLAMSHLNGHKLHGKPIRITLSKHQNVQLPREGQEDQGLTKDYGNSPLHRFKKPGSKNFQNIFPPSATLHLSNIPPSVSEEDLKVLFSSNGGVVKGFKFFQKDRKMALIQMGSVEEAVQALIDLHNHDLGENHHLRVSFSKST
# [19] = target: T14, tiar-1 (Caenorhabditis elegans) (UniProt Q95QV8)
# T14 sequence: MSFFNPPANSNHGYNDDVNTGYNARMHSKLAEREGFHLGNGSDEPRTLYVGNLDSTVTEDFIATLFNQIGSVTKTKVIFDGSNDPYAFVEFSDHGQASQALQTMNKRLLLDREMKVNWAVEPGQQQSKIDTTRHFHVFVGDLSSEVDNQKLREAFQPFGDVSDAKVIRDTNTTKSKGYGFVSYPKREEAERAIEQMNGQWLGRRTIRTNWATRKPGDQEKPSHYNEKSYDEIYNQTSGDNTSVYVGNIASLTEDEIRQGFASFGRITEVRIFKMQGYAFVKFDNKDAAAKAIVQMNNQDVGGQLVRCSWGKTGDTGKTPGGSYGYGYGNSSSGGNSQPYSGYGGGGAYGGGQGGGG
# [20] = target: T15, e_gw1.03.00.367.1 (Ostreococcus tauri) (UniProt Q01DB3)
# T15 sequence: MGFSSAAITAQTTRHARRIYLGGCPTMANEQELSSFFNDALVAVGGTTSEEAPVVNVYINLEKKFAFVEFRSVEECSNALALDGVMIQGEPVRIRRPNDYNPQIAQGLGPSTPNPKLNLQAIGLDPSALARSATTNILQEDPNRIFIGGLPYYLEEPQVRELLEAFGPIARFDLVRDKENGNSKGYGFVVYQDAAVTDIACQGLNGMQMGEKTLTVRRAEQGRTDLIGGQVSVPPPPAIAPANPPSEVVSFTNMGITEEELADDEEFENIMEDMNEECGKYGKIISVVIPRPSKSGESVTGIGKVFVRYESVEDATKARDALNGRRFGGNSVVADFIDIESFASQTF
substance,measurement,setting,value
AAAACAAA [RNAcompete motif RNCMPT00255],binding signal (z-score (mean of top ten 7-mers)),[1],8.22
AAAUU [RNAcompete motif RNCMPT00281],binding signal (z-score (mean of top ten 7-mers)),[2],7.01
AAUUUUG [RNAcompete motif RNCMPT00261],binding signal (z-score (mean of top ten 7-mers)),[3],19.4
ACCAUG [RNAcompete motif RNCMPT00259],binding signal (z-score (mean of top ten 7-mers)),[4],19.9
AGAAAA [RNAcompete motif RNCMPT00257],binding signal (z-score (mean of top ten 7-mers)),[5],12.5
AGAAANA [RNAcompete motif RNCMPT00253],binding signal (z-score (mean of top ten 7-mers)),[6],9.59
AGAACA [RNAcompete motif RNCMPT00263],binding signal (z-score (mean of top ten 7-mers)),[7],8.19
AGACACA [RNAcompete motif RNCMPT00278],binding signal (z-score (mean of top ten 7-mers)),[8],12.7
AGACGU [RNAcompete motif RNCMPT00002],binding signal (z-score (mean of top ten 7-mers)),[9],22.8
AGAGAAA [RNAcompete motif RNCMPT00090],binding signal (z-score (mean of top ten 7-mers)),[10],14.3
CUCUGU [RNAcompete motif RNCMPT00273],binding signal (z-score (mean of top ten 7-mers)),[11],6.48
GAACG [RNAcompete motif RNCMPT00254],binding signal (z-score (mean of top ten 7-mers)),[12],15.2
GAUGAU [RNAcompete motif RNCMPT00279],binding signal (z-score (mean of top ten 7-mers)),[13],8.4
GAUGAUU [RNAcompete motif RNCMPT00280],binding signal (z-score (mean of top ten 7-mers)),[14],7.8
UAGGUA [RNAcompete motif RNCMPT00272],binding signal (z-score (mean of top ten 7-mers)),[15],8.77
UGUUUG [RNAcompete motif RNCMPT00258],binding signal (z-score (mean of top ten 7-mers)),[16],7.64
UNUUUGUGU [RNAcompete motif RNCMPT00270],binding signal (z-score (mean of top ten 7-mers)),[17],14.8
UUUUCU [RNAcompete motif RNCMPT00268],binding signal (z-score (mean of top ten 7-mers)),[18],6.14
UUUUUU [RNAcompete motif RNCMPT00256],binding signal (z-score (mean of top ten 7-mers)),[19],11.2
UUUUUU [RNAcompete motif RNCMPT00262],binding signal (z-score (mean of top ten 7-mers)),[20],11.3
